According to patent US20210230570:

Experiments:
[1] = target: plasma purified human AT-III (antithrombin III), in complex with full-length unfractionated heparin (AT-III/UFH)

Chain of Factor X (FX), P00742 (P00742 whole entry, looked up): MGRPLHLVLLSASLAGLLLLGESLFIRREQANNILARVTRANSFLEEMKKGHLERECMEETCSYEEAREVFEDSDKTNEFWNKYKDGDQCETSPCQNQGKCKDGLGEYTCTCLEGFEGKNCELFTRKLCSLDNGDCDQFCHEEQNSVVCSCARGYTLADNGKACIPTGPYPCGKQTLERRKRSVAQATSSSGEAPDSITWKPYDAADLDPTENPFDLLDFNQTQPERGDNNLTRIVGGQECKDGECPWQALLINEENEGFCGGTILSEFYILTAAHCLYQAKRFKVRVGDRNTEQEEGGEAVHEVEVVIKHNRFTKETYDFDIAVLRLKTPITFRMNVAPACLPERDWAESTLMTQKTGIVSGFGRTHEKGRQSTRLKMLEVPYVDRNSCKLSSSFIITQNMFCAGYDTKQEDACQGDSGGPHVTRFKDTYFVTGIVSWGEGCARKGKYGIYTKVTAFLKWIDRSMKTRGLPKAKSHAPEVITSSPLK
Chain of Factor X, P00742 (P00742 whole entry, looked up): as above

Row | Protein | kcat of FX activation by FIXa (Xase complex with FVIIIa, PC/PS vesicles, Ca2+) (Factor X, P00742) [s⁻¹] | K0.5-mut/K0.5-wt (against Catalyst Biosciences WT FIXa) [1] | KM (nM); Catalytic activity of FIXa variants (KM) (Factor X (FX), P00742) [nM] | kcat of FX activation by FIXa in the Xase complex (FVIIIa, PC/PS vesicles, Ca2+) (Factor X (FX), P00742) [s⁻¹] | KM (Factor X (FX), P00742) [µM] | kcat/KM (Factor X (FX), P00742) [M⁻¹ s⁻¹]
1 | FIXa-Y259F/K265T/Y345T (protein) chain 1: YNSGKLEEFVQGNLERECMEEKCSFEEAREVFENTERTTEFWKQYVDGDQCESNPCLNGGSCKDDINSYECWCPFGFEGKNCELDVTCNIKNGRCEQFCKNSADNKVVCSCTEGYRLAENQKSCEPAVPFPCGRVSVSQTSKLTR chain 2: VVGGEDAKPGQFPWQVVLNGKVDAFCGGSIVNEKWIVTAAHCVETGVKITVVAGEHNIEETEHTEQKRNVIRIIPHHNFNAAINTYNHDIALLELDEPLVLNSYVTPICIADKEYTNIFLKFGSGYVSGWGRVFHKGRSALVLQYLRVPLVDRATCLRSTKFTITNNMFCAGFHEGGRDSCQGDSGGPHVTEVEGTSFLTGIISWGEECAMKGKYGIYTKVSRYVNWIKEKTKLT | 1.7 | 0.3 | – | – | – | –
2 | FIXa-Y155F/N260S/R318Y/R338E/R403E/E410N (protein) chain 1: YNSGKLEEFVQGNLERECMEEKCSFEEAREVFENTERTTEFWKQYVDGDQCESNPCLNGGSCKDDINSYECWCPFGFEGKNCELDVTCNIKNGRCEQFCKNSADNKVVCSCTEGYRLAENQKSCEPAVPFPCGRVSVSQTSKLTR chain 2: VVGGEDAKPGQFPWQVVLNGKVDAFCGGSIVNEKWIVTAAHCVETGVKITVVAGEHNIEETEHTEQKRNVIRIIPHHNYSAAINKYNHDIALLELDEPLVLNSYVTPICIADKEYTNIFLKFGSGYVSGWGRVFHKGYSALVLQYLRVPLVDRATCLESTKFTIYNNMFCAGFHEGGRDSCQGDSGGPHVTEVEGTSFLTGIISWGEECAMKGKYGIYTKVSEYVNWIKNKTKLT | – | 501 | 83.9 | 5.8 | – | –
3 | FIXa-I251S/R318Y/R338E/R403E/E410N (protein) chain 1: YNSGKLEEFVQGNLERECMEEKCSFEEAREVFENTERTTEFWKQYVDGDQCESNPCLNGGSCKDDINSYECWCPFGFEGKNCELDVTCNIKNGRCEQFCKNSADNKVVCSCTEGYRLAENQKSCEPAVPFPCGRVSVSQTSKLTR chain 2: VVGGEDAKPGQFPWQVVLNGKVDAFCGGSIVNEKWIVTAAHCVETGVKITVVAGEHNIEETEHTEQKRNVSRIIPHHNYNAAINKYNHDIALLELDEPLVLNSYVTPICIADKEYTNIFLKFGSGYVSGWGRVFHKGYSALVLQYLRVPLVDRATCLESTKFTIYNNMFCAGFHEGGRDSCQGDSGGPHVTEVEGTSFLTGIISWGEECAMKGKYGIYTKVSEYVNWIKNKTKLT | 4.8 | > 517 | – | – | – | –
4 | FIXa-R318Y/R338E/T412A (protein) chain 1: YNSGKLEEFVQGNLERECMEEKCSFEEAREVFENTERTTEFWKQYVDGDQCESNPCLNGGSCKDDINSYECWCPFGFEGKNCELDVTCNIKNGRCEQFCKNSADNKVVCSCTEGYRLAENQKSCEPAVPFPCGRVSVSQTSKLTR chain 2: VVGGEDAKPGQFPWQVVLNGKVDAFCGGSIVNEKWIVTAAHCVETGVKITVVAGEHNIEETEHTEQKRNVIRIIPHHNYNAAINKYNHDIALLELDEPLVLNSYVTPICIADKEYTNIFLKFGSGYVSGWGRVFHKGYSALVLQYLRVPLVDRATCLESTKFTIYNNMFCAGFHEGGRDSCQGDSGGPHVTEVEGTSFLTGIISWGEECAMKGKYGIYTKVSRYVNWIKEKAKLT | – | 396 | – | 7 | – | –
5 | FIXa-N260S/R318Y/R338E/R403E/E410N (protein) chain 1: YNSGKLEEFVQGNLERECMEEKCSFEEAREVFENTERTTEFWKQYVDGDQCESNPCLNGGSCKDDINSYECWCPFGFEGKNCELDVTCNIKNGRCEQFCKNSADNKVVCSCTEGYRLAENQKSCEPAVPFPCGRVSVSQTSKLTR chain 2: VVGGEDAKPGQFPWQVVLNGKVDAFCGGSIVNEKWIVTAAHCVETGVKITVVAGEHNIEETEHTEQKRNVIRIIPHHNYSAAINKYNHDIALLELDEPLVLNSYVTPICIADKEYTNIFLKFGSGYVSGWGRVFHKGYSALVLQYLRVPLVDRATCLESTKFTIYNNMFCAGFHEGGRDSCQGDSGGPHVTEVEGTSFLTGIISWGEECAMKGKYGIYTKVSEYVNWIKNKTKLT | – | > 517 | 72.4 | 3.8 | – | –
6 | FIXa-D104N/K106S/N260S/R318Y/R338E/R403E/E410N (protein) chain 1: YNSGKLEEFVQGNLERECMEEKCSFEEAREVFENTERTTEFWKQYVDGDQCESNPCLNGGSCKDDINSYECWCPFGFEGKNCELDVTCNIKNGRCEQFCKNSANNSVVCSCTEGYRLAENQKSCEPAVPFPCGRVSVSQTSKLTR chain 2: VVGGEDAKPGQFPWQVVLNGKVDAFCGGSIVNEKWIVTAAHCVETGVKITVVAGEHNIEETEHTEQKRNVIRIIPHHNYSAAINKYNHDIALLELDEPLVLNSYVTPICIADKEYTNIFLKFGSGYVSGWGRVFHKGYSALVLQYLRVPLVDRATCLESTKFTIYNNMFCAGFHEGGRDSCQGDSGGPHVTEVEGTSFLTGIISWGEECAMKGKYGIYTKVSEYVNWIKNKTKLT | – | > 517 | 61.1 | 5.4 | – | –
7 | FIXa-Y155F/K228N/R318Y/R338E/R403E/E410N (protein) chain 1: YNSGKLEEFVQGNLERECMEEKCSFEEAREVFENTERTTEFWKQYVDGDQCESNPCLNGGSCKDDINSYECWCPFGFEGKNCELDVTCNIKNGRCEQFCKNSADNKVVCSCTEGYRLAENQKSCEPAVPFPCGRVSVSQTSKLTR chain 2: VVGGEDAKPGQFPWQVVLNGKVDAFCGGSIVNEKWIVTAAHCVETGVNITVVAGEHNIEETEHTEQKRNVIRIIPHHNYNAAINKYNHDIALLELDEPLVLNSYVTPICIADKEYTNIFLKFGSGYVSGWGRVFHKGYSALVLQYLRVPLVDRATCLESTKFTIYNNMFCAGFHEGGRDSCQGDSGGPHVTEVEGTSFLTGIISWGEECAMKGKYGIYTKVSEYVNWIKNKTKLT | 9.7 | > 517 | – | – | – | –
8 | FIXa-R318Y/R338E/E410N/T412V (protein) chain 1: YNSGKLEEFVQGNLERECMEEKCSFEEAREVFENTERTTEFWKQYVDGDQCESNPCLNGGSCKDDINSYECWCPFGFEGKNCELDVTCNIKNGRCEQFCKNSADNKVVCSCTEGYRLAENQKSCEPAVPFPCGRVSVSQTSKLTR chain 2: VVGGEDAKPGQFPWQVVLNGKVDAFCGGSIVNEKWIVTAAHCVETGVKITVVAGEHNIEETEHTEQKRNVIRIIPHHNYNAAINKYNHDIALLELDEPLVLNSYVTPICIADKEYTNIFLKFGSGYVSGWGRVFHKGYSALVLQYLRVPLVDRATCLESTKFTIYNNMFCAGFHEGGRDSCQGDSGGPHVTEVEGTSFLTGIISWGEECAMKGKYGIYTKVSRYVNWIKNKVKLT | – | > 517 | 29.7 | 5.2 | 0.0236 | 2.4e+08
9 | FIXa-D85N/K228N/R318Y/R338E/R403E/E410N (protein) chain 1: YNSGKLEEFVQGNLERECMEEKCSFEEAREVFENTERTTEFWKQYVDGDQCESNPCLNGGSCKDDINSYECWCPFGFEGKNCELNVTCNIKNGRCEQFCKNSADNKVVCSCTEGYRLAENQKSCEPAVPFPCGRVSVSQTSKLTR chain 2: VVGGEDAKPGQFPWQVVLNGKVDAFCGGSIVNEKWIVTAAHCVETGVNITVVAGEHNIEETEHTEQKRNVIRIIPHHNYNAAINKYNHDIALLELDEPLVLNSYVTPICIADKEYTNIFLKFGSGYVSGWGRVFHKGYSALVLQYLRVPLVDRATCLESTKFTIYNNMFCAGFHEGGRDSCQGDSGGPHVTEVEGTSFLTGIISWGEECAMKGKYGIYTKVSEYVNWIKNKTKLT | 6 | > 517 | – | – | – | –
10 | FIXa-K247N/N249S/R318Y/R338E/R403E/E410N (protein) chain 1: YNSGKLEEFVQGNLERECMEEKCSFEEAREVFENTERTTEFWKQYVDGDQCESNPCLNGGSCKDDINSYECWCPFGFEGKNCELDVTCNIKNGRCEQFCKNSADNKVVCSCTEGYRLAENQKSCEPAVPFPCGRVSVSQTSKLTR chain 2: VVGGEDAKPGQFPWQVVLNGKVDAFCGGSIVNEKWIVTAAHCVETGVKITVVAGEHNIEETEHTEQNRSVIRIIPHHNYNAAINKYNHDIALLELDEPLVLNSYVTPICIADKEYTNIFLKFGSGYVSGWGRVFHKGYSALVLQYLRVPLVDRATCLESTKFTIYNNMFCAGFHEGGRDSCQGDSGGPHVTEVEGTSFLTGIISWGEECAMKGKYGIYTKVSEYVNWIKNKTKLT | 5.8 | 418 | – | – | – | –
11 | FIXa-Y155F/I251S/R318Y/R338E/R403E/E410N (protein) chain 1: YNSGKLEEFVQGNLERECMEEKCSFEEAREVFENTERTTEFWKQYVDGDQCESNPCLNGGSCKDDINSYECWCPFGFEGKNCELDVTCNIKNGRCEQFCKNSADNKVVCSCTEGYRLAENQKSCEPAVPFPCGRVSVSQTSKLTR chain 2: VVGGEDAKPGQFPWQVVLNGKVDAFCGGSIVNEKWIVTAAHCVETGVKITVVAGEHNIEETEHTEQKRNVSRIIPHHNYNAAINKYNHDIALLELDEPLVLNSYVTPICIADKEYTNIFLKFGSGYVSGWGRVFHKGYSALVLQYLRVPLVDRATCLESTKFTIYNNMFCAGFHEGGRDSCQGDSGGPHVTEVEGTSFLTGIISWGEECAMKGKYGIYTKVSEYVNWIKNKTKLT | 7.2 | > 517 | – | – | – | –
12 | FIXa-R318Y/R338E/N346D/R403E/E410N (protein) chain 1: YNSGKLEEFVQGNLERECMEEKCSFEEAREVFENTERTTEFWKQYVDGDQCESNPCLNGGSCKDDINSYECWCPFGFEGKNCELDVTCNIKNGRCEQFCKNSADNKVVCSCTEGYRLAENQKSCEPAVPFPCGRVSVSQTSKLTR chain 2: VVGGEDAKPGQFPWQVVLNGKVDAFCGGSIVNEKWIVTAAHCVETGVKITVVAGEHNIEETEHTEQKRNVIRIIPHHNYNAAINKYNHDIALLELDEPLVLNSYVTPICIADKEYTNIFLKFGSGYVSGWGRVFHKGYSALVLQYLRVPLVDRATCLESTKFTIYDNMFCAGFHEGGRDSCQGDSGGPHVTEVEGTSFLTGIISWGEECAMKGKYGIYTKVSEYVNWIKNKTKLT | – | > 517 | 77.7 | 2.5 | – | –
13 | FIXa-D104N/K106S/I251S/R318Y/R338E/R403E/E410N (protein) chain 1: YNSGKLEEFVQGNLERECMEEKCSFEEAREVFENTERTTEFWKQYVDGDQCESNPCLNGGSCKDDINSYECWCPFGFEGKNCELDVTCNIKNGRCEQFCKNSANNSVVCSCTEGYRLAENQKSCEPAVPFPCGRVSVSQTSKLTR chain 2: VVGGEDAKPGQFPWQVVLNGKVDAFCGGSIVNEKWIVTAAHCVETGVKITVVAGEHNIEETEHTEQKRNVSRIIPHHNYNAAINKYNHDIALLELDEPLVLNSYVTPICIADKEYTNIFLKFGSGYVSGWGRVFHKGYSALVLQYLRVPLVDRATCLESTKFTIYNNMFCAGFHEGGRDSCQGDSGGPHVTEVEGTSFLTGIISWGEECAMKGKYGIYTKVSEYVNWIKNKTKLT | 5.5 | > 517 | – | – | – | –
